In patent publication US20180133314A1 (Daiichi Sankyo, published 2018):
Each block holds one binder with its values, some of them ahead of it.

What was measured:
[1] = target: T1, human FGFR2 IIIc variant protein (human, UniProt P21802 22-821); test: flow cytometry, hybridoma culture supernatant on transfected HEK293T cells
T1 construct: also called hFGFR2 IIIc
Experimental: HEK293T cells were inoculated at a density of 5×10⁴ cells/cm² to a 225-cm² flask (manufactured by Sumitomo Bakelite Co., Ltd.) and cultured overnight at 37° C. under 5% CO₂ conditions in a DMEM medium containing 10% FBS. On the next day, the pcDNA-DEST40-FGFR2 IIIc, the pcDNA-DEST40-FGFR2 IIIb or a control pcDNA-DEST40 was transfected to the HEK293T cells using Lipofectamine 2000, and the cells were further cultured overnight at 37° C. under 5% CO₂ conditions. On the next day, the expression vector-transfected HEK293T cells were treated with TrypLE Express (manufactured by Life Technologies Corp.), washed with DMEM containing 10% FBS, and then suspended in PBS containing 5% FBS. The obtained cell suspension was used in flow cytometry analysis.
The pcDNA-DEST40-FGFR2 IIIc and pcDNA-DEST40-FGFR2 IIIb binding specificity of the antibody produced by each hybridoma determined to be positive by Cell-ELISA in Example 1)-4 was further confirmed by flow cytometry. Each HEK293T cell suspension prepared in Example 1)-5-1 was centrifuged to remove a supernatant. […] The data was analyzed using Flowjo (manufactured by Tree Star Inc.). After removal of 7-aminoactinomycin D-positive dead cells by gating, the FITC fluorescence intensity of live cells was plotted to a histogram.

[2] = target: T2, human FGFR3 IIIc variant protein (human, UniProt P22607 23-806); test: immunostaining of formalin-fixed, paraffin-embedded transfected 293alpha cell blocks (denatured), proteinase K retrieval
[3] = target: T3, human FGFR2 IIIb variant protein (human, UniProt P21802-3 22-822); test: as above
T3 construct: whole, on cells; also called hFGFR2 IIIb

[4] = target: T4, human FGFR1 IIIc variant protein (human, UniProt P11362 22-822); test: as above
[5] = target: T3, human FGFR2 IIIb variant protein; test: flow cytometry on transfected HEK293T cells (non-denatured)
Source text: (§1) The binding specificity of the mouse chimeric FR2-2nd_#028 and the mouse chimeric FR2-2nd_#023 prepared in Example 3)-7 for non-denatured molecules of the FGFR family was confirmed by flow cytometry. Each HEK293T cell suspension prepared in Example 3)-8-1 was centrifuged to remove a supernatant. Then, the pcDNA-DEST40-FGFR1 IIIb-, pcDNA-DEST40-FGFR1 IIIc-, pcDNA-DEST40-FGFR2 IIIb-, pcDNA-DEST40-FGFR2 IIIc-, pcDNA-DEST40-FGFR3 IIIb-, pcDNA-DEST40-FGFR3 IIIc-, pcDNA-DEST40-FGFR4-, or pcDNA-DEST40-transfected HEK293T cells were suspended by the addition of a negative control mouse IgG1 (manufactured by R&D Systems, Inc.) or the mouse chimeric FR2-2nd_#028 or the mouse chimeric FR2-2nd_#023 adjusted to 5 μg/ml, and left standing at 4° C. for 1 hour. The cells were washed once with PBS containing 5% FBS, then suspended by the addition of Fluorescein-Conjugated Goat IgG Fraction to Mouse IgG (manufactured by MP Biomedicals, Inc.) diluted 500-fold with PBS containing 5% FBS, and left standing at 4° C. for 1 hour. […] The data was analyzed using Flowjo (manufactured by Tree Star Inc.). After removal of 7-aminoactinomycin D-positive dead cells by gating, the average fluorescence intensity (MFI) of the FITC of live cells was calculated (FIG. 1).

[6] = target: T1, human FGFR2 IIIc variant protein; test: immunostaining of formalin-fixed, paraffin-embedded transfected 293alpha cell blocks (denatured), 15 µg/mL
Experimental: The cells were transfected with the FGFR1 IIIb, FGFR1 IIIc, FGFR2 IIIb, FGFR2 IIIc, FGFR3 IIIb, FGFR3 IIIc, or FGFR4 expression vector constructed in Examples 1)-3-1, 1)-3-2, and 1)-3-3 or an empty vector, i.e., pcDNA-DEST40-FGFR1 IIIb, pcDNA-DEST40-FGFR1 IIIc, pcDNA-DEST40-FGFR2 IIIb, pcDNA-DEST40-FGFR2 IIIc, pcDNA-DEST40-FGFR3 IIIb, pcDNA-DEST40-FGFR3 IIIc, pcDNA-DEST40-FGFR4, or pcDNA-DEST40 using FuGENE 6 (manufactured by Roche Diagnostics K.K.) and cultured for two nights at 37° C. under 5% CO₂ conditions. The obtained cells were recovered using TrypLE Express (manufactured by Life Technologies Corp.) and centrifuged to obtain a pellet, which was then washed once with PBS and centrifuged. The resulting pellet was fixed in 20% neutral buffered formalin.
Each sample was stained using an automatic staining apparatus (LEICA BOND-III; manufactured by Leica Biosystems Nussloch GmbH). For deparaffinization, the sample was heated to 72° C., then Bond Dewax Solution (manufactured by Leica Biosystems Nussloch GmbH) was added thereto, and the sample was incubated for 30 seconds, followed by addition of ethanol and washing 4 times with Bond Wash Solution (manufactured by Leica Biosystems Nussloch GmbH). Enzyme Proteinase K (IHC) (manufactured by Leica Biosystems Nussloch GmbH) diluted 200-fold was added thereto, and the sample was incubated at 37° C. for 5 minutes. […]

[7] = target: T2, human FGFR3 IIIc variant protein; test: immunostaining of formalin-fixed, paraffin-embedded transfected 293alpha cell blocks (denatured), heat retrieval
[8] = target: T4, human FGFR1 IIIc variant protein; test: as above
[9] = target: T3, human FGFR2 IIIb variant protein; test: immunostaining of formalin-fixed, paraffin-embedded blocks of 293alpha cells forced to express FGFR2 IIIb; antibody at 15 ug/mL, heat retrieval
[10] = target: T1, human FGFR2 IIIc variant protein; test: immunostaining of formalin-fixed, paraffin-embedded blocks of 293alpha cells forced to express FGFR2 IIIc; antibody at 15 ug/mL, heat retrieval
[11] = target: T2, human FGFR3 IIIc variant protein; test: flow cytometry on transfected HEK293T cells (non-denatured)
Source text: as §1

[12] = target: T3, human FGFR2 IIIb variant protein; test: immunostaining of formalin-fixed, paraffin-embedded blocks of 293alpha cells forced to express FGFR2 IIIb; antibody at 15 ug/mL, heat retrieval; remark: listed apart in the source
[13] = target: T1, human FGFR2 IIIc variant protein; test: immunostaining of formalin-fixed, paraffin-embedded blocks of 293alpha cells forced to express FGFR2 IIIc; antibody at 15 ug/mL, heat retrieval; remark: listed apart in the source

T4 sequence (P11362 22-822 limits assumed, change not shown): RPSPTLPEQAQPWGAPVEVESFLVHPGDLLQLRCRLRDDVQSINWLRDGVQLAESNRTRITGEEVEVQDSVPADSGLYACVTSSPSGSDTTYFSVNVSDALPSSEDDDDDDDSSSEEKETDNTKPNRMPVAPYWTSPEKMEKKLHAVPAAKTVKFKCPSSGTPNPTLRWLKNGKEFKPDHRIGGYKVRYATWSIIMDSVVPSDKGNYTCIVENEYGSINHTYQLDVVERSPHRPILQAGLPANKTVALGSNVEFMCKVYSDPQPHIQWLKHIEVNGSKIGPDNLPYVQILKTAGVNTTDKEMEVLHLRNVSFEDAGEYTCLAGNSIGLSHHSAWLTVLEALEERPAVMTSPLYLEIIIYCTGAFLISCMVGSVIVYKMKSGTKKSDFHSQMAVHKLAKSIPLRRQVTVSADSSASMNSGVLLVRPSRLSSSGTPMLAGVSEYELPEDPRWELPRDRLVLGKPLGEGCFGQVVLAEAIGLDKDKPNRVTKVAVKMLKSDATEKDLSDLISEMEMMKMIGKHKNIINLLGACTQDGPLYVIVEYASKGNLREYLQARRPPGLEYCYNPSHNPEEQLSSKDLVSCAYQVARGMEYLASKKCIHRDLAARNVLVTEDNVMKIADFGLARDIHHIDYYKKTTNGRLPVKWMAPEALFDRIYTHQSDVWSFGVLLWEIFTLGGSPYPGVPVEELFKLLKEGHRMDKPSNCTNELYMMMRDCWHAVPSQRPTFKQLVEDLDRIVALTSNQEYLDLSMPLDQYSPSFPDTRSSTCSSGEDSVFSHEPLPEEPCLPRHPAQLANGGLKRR
T2 sequence (P22607 23-806 limits assumed, change not shown): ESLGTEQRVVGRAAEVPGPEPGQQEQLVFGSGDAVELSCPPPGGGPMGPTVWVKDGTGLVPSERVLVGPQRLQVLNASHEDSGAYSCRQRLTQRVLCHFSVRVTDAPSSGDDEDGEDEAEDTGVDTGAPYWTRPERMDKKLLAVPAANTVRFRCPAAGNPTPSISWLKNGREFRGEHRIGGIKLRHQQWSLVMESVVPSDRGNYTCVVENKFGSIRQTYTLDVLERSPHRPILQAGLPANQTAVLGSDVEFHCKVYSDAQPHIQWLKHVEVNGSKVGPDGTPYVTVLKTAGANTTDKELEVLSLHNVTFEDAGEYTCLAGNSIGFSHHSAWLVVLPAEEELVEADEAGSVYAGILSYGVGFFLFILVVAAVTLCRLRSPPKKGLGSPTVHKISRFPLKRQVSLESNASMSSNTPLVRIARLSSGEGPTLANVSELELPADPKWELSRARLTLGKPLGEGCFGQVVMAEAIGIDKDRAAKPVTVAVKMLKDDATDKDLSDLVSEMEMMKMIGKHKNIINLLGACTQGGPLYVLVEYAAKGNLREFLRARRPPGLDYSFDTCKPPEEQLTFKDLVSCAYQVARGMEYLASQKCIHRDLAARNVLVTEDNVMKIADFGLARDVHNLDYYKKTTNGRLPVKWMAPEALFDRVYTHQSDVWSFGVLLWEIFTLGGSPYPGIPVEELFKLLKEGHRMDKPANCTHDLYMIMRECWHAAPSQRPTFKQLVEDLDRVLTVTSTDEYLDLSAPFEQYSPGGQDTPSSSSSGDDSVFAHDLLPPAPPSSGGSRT
T1 sequence (P21802 22-821 limits assumed, change not shown): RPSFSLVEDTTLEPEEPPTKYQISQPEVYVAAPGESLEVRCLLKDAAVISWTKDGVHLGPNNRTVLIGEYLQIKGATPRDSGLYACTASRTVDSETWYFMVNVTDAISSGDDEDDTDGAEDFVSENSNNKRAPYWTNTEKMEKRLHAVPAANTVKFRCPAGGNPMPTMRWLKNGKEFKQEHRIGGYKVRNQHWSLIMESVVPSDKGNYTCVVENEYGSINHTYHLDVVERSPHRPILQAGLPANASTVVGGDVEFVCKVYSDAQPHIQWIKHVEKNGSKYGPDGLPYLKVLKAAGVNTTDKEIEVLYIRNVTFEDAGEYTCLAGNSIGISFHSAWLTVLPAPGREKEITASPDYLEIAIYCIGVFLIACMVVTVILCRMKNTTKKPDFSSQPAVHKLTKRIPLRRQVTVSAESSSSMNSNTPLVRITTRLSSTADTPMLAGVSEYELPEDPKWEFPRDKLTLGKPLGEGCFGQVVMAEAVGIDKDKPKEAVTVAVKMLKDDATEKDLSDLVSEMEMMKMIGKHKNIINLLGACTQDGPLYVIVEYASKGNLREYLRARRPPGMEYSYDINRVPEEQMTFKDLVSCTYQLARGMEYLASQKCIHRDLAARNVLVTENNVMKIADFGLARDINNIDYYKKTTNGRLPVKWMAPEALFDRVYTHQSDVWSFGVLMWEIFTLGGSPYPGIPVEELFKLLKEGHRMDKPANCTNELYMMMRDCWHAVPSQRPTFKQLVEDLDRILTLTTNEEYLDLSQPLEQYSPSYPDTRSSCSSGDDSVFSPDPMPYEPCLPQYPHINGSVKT
T3 sequence (P21802 other isoform, or with tags, fused parts or gaps mutant limits assumed): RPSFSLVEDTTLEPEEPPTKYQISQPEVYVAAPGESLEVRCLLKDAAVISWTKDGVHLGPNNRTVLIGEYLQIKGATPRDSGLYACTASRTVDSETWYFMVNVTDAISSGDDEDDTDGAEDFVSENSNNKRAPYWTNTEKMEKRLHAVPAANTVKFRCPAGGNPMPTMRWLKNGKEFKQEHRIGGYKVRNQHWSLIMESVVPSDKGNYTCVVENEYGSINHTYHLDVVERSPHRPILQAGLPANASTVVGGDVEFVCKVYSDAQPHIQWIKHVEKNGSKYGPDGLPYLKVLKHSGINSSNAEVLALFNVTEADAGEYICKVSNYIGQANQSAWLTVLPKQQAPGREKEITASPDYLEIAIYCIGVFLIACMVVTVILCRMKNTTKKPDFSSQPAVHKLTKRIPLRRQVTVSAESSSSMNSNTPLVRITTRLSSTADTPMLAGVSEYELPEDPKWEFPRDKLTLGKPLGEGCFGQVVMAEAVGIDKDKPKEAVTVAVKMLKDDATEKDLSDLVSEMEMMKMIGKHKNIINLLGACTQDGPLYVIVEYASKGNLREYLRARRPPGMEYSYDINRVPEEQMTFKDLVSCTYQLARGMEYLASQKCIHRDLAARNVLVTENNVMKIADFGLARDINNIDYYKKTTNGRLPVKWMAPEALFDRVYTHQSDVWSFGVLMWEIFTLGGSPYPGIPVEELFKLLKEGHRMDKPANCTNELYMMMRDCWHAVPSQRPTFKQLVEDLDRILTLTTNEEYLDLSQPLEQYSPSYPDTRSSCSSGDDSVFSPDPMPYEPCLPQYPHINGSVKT

B1: rat anti-FGFR2 antibody FR2-2nd_#028 (antibody, V domains shown)
VH: EVQLVESGGGLVQPGRSLKLSCAASGFTFSDYGMAWVRQAPTKGLEWVATISYDGSSTYYRDSVKGRFTISRENAKSTLSLQMDSLRSEDTATYYCTRHPTYYYIMDAWGQGASVTVSS
VL: DTVLTQSPALAVSLGQRVTISCRASKSVSTFMNWYQQKSGQQPKLLIYRASNLESGVPSRFSGSGSGTDFTLTIDPVEADDIANYYCQQSNELPLTFGSGTKLEIKR
notes: Rat monoclonal from hybridoma; also called rat FR2-2nd_#028; rat antibody FR2-2nd_#028
binding result [1]: binds
binding result [2]: no binding (tested: 15 µg/mL)
binding result [3]: no binding (tested: 15 µg/mL)
binding result [4]: no binding (tested: 15 µg/mL)

B2: mouse chimeric anti-FGFR2 antibody FR2-2nd_#028 (antibody, mouse IgG1, kappa, V domains shown)
VH: B1 VH
VL: B1 VL
notes: The full-chain entries may include a secretory signal; also called mouse chimeric FR2-2nd_#028; mouse IgG1 chimeric FR2-2nd_#028
binding result [5]: no binding (tested: 5 µg/ml)
binding result [6]: binds
binding result [2]: no binding (tested: 15 µg/mL)
binding result [4]: no binding (tested: 15 µg/mL)

Further lines, results first:

binding result [7]: no binding (tested: 15 µg/mL)
binding result [8]: no binding (tested: 15 µg/mL)
binding result [9]: binds
binding result [10]: binds
B3: rat anti-FGFR2 antibody FR2-2nd_#023 (antibody, V domains shown)
VH: EVQLVESGGGLVQPGRSMKLSCAASGLTFSNYGMAWVRQAPKKGLEWVAFISHDGGSSYYRDSVEGRFIISRDNAKSTLSLQMDSLRSEDTATYYCTTAGDYYSDNDWYFDFWGPGIMVTVSS
VL: DIQMTQSPSLLSASVGDRVTLSCKASQSIYNSLAWYQQKLGEAPKLLIYDADSLQTGIPSRFSGSGSGTDYTLTISSLQPEDVATYFCQKYYSGWTFGGGTKLELKR
notes: Rat monoclonal from hybridoma; also called rat FR2-2nd_#023; rat antibody FR2-2nd_#023

binding result [11]: no binding (tested: 5 µg/ml)
binding result [8]: no binding (tested: 15 µg/mL)
binding result [12]: binds
binding result [13]: binds
B4: mouse chimeric anti-FGFR2 antibody FR2-2nd_#023 (antibody, mouse IgG1, kappa, V domains shown)
VH: B3 VH
VL: B3 VL
notes: The full-chain entries may include a secretory signal; also called mouse chimeric FR2-2nd_#023; mouse IgG1 chimeric FR2-2nd_#023
